Source: the supplement of paper PMC9170038

Test system: K4 kissing-loop RNA reporter
Experiment: apparent KD of K4 kissing-loop reporter; higher = weaker reporter binding
Settings: Eterna round: R107
Description: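 RNA-MaP round R107: designed RNA switches with theophylline, tryptophan, arginine or FMN aptamers are transcribed on-chip within common flanks. They are titrated with a labelled K4 kissing-loop RNA reporter in RNA-MaP buffer (100 mM Tris pH 7.5, 80 mM KCl, 4 mM MgCl2), without ligand or with the indicated ligand. Median apparent KD per design.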

[1] = input ligand: theophylline 20 uM
[2] = input ligand: tryptophan 2.4 mM
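Note: bound reporter read as fluorescence of individual clusters on recovered sequencing chips by microscopy, with normalized cluster intensities fitted with a binding model.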

Sequence	apparent KD of K4 kissing-loop reporter (input ligand: FMN 200 uM) [nM]	apparent KD of K4 kissing-loop reporter (input ligand: arginine 13.2 mM) [nM]	apparent KD of K4 kissing-loop reporter (input ligand: none) [nM]	apparent KD of K4 kissing-loop reporter [1] [nM]	apparent KD of K4 kissing-loop reporter [2] [nM]
AGGAUCACGUCAGUGAUGUUGACAAGAGAUACCAGAGACGAAAGUCUCCCUUGGCAGCUCAUUGUGAUCCGUGACAAAGGUCACA [Omei KL hio A SS C v2]	353	293	413	593	186
AGGAUCCACCAGUGAUGUUGGAAAUACUCCAAGGAUAUGACGAAAGUCAGAAGGUGGUAGACUGGACAAAGUCCAGUCGGAUCCA [FmnA 28 #SwitchBubble #K4Early]	534	247	602	486	346
AGGAUCCGUCGACAAAAGUCGACAUAAUCCGAGGAUAUGACGAAAGUCAGAAGGUGGACAUAAGUCCAGUGAUGUUGGAGGAUCC [FmnA 17 #SwitchBubble #K4Late]	847	218	441	420	193
AGGAUGUAGUGAUGUUAUAUAAGAAGUAAACGAGGACCGGUACGGCCGCCACUCGAAGCGGCUACUAGCGCGCCGCGAGGCGCGC [ExTryptoA.Cb]	370	391	958	361	358
AGGAUGUAGUGAUGUUAUAUAAGAAGUAAACGAGGACCGGUACGGCCGCCACUCGAAGCGGCUACUAGCGCGUUGCGAGGUGUGC [ExTryptoA.Ce]	492	384	581	656	378
AGGCACGAGCAAGGAUAUCGAGUAGAGUGAUGUUCUGCCUGGGUUGGCUCGAAAGGGCCUUCCCAGCGAGAAGGUGCUCGUGCCU [#2 Same State - FMN A Attempt #14 (HarryS)]	219	325	300	1040	619
AGGCACGAGCAAGGAUAUCGAGUAGAGUGAUGUUCUGCCUGGGUUGGCUCGUAAGGGCCUUCCCAGCGAGAAGGUGCUCGUGCCU [#2 Same State - FMN A Attempt #15 (HarryS)]	221	632	877	581	757
AGGCACGAGCAAGGAUAUUGAGUAGAGUGAUGUUCUGCCUGGGUUGGCUCGGAAGAGCCUUCUCAGCGAGAAGGUGCUCGUGCCU [#2 Same State - FMN A Attempt #24 (HarryS)]	261	475	785	542	556
AGGUGAGACUGAAGGAGCGAUCGCGCUAGUGAUGUUGGCGAGCAUGACAAAGUCAUGCACGAUCAGGUAGGUCGCAGUCUUACUC [Omei KL Arginine B SS B v1]	128	103	137	123	141
AGUACAGACACGGCCGCCACUCAGAAGAAGACAGUAGUGAUGUUACUGAUGGUGAGAAUAAUAAAGAGGACCGGGUGUUGUGCAA [#04 K4 Tryptophan B Same State]	222	202	224	240	138
AGUAGUUGGGCGGCCGCCACUGGAACAGCUUUGCCAAAGGCAGAGCACUAGAGUGAUGUUCUAGCUAGGACCGGGUCCAACUACA [whbob_SS_Tryp_B_t17]	588	250	444	252	1220
AGUAUAGAGUCGGCCGCCACUGGUUUUAUGUGUGUCAAAUCUGGAUCAAAGUGAUGUUUUGAGACUAGGACCGGGACCAUUGUUA [#06 K4 Tryptophan B Exclusion]	160	139	145	131	206
AGUAUGUAAUAUGGCAUAUUUAGAACUGAAGGAGCGCCGAAUAAGGCAGGUAGGUCGCGGAAAUAUGAGUGAUGUUCAUGUUUAA [KL-SSArg-A25]	88	103	101	113	82.8
AGUCCUAUGACGGCCGCCACUCCGGUUAUGAUUUGCCAAGUGAUGUUUGGGUAUCAGGCGAGGCGGAGGACCGGGUCGACCUGCC [theeternabot_exclusion_KL_Trp_B_18]	171	139	151	129	152
AGUGAACGAGCGGCCGCCACUAAAUGAGUGAUGUUCGUGAGUAGUGCUGUUCUCAUGAUUGUUUUUAGGACCGGGUUCGAUGUUG [edcclmullin]	937	739	762	576	662
AGUGACGAGUGAUGUUCGUGAACACUGGAUACCAGCAGUCUUAUCUGCCCUUGGCAGCCAACGGGAACCGAAUGUUAAGACCUGU [theeternabot_exclusion_KL_Theo_A_4]	132	114	129	149	121
AGUGAUGUGGGAAGGAGCGGUAUAAGAAUUCAGUGAUGUUGAAGUGUUGCUGUAAUAAAGAGCCAGGUAGGUCGCCUAGAUGUUA [KL-XARG B30]	811	775	940	1120	562
AGUGAUGUGGGAAGGAGCGGUAUAUGAAUUCAGUGAUGUUGAAGUGAUGCUGUAAUGAUGUGCCAGGUAGGUCGCCUAGAUGUUA [KL-XARG B26]	267	161	244	171	187
AGUGAUGUGGGAAGGAGCGGUAUAUGAGUUCAGUGAUGUUGAAGUGAUGAUAUAGUGAUGUGCCAGGUAGGUCGCCUAGAUGUUA [KL-XARG-B5]	281	144	210	146	202
AGUGAUGUGGGAAGGAGCGGUUAAUGAAUUCAGUGAUGUUGAAGUGAUGCUGAAAUGAUGUGCCAGGUAGGUCGCCUAGAUGUUA [KL-XARG B28]	308	164	245	164	203
AGUGCCGAGUGUGAUACCAGCUUCAUGCAGUGAUGUUGCACACGAGUGAUGUUCGUCCGAGGCCCUUGGCAGCGCAGUCGCUCGA [Same State Theophylline B Gf 30]	751	807	885	711	670

Sequence	apparent KD of K4 kissing-loop reporter (input ligand: FMN 200 uM) [nM]	apparent KD of K4 kissing-loop reporter (input ligand: arginine 13.2 mM) [nM]	apparent KD of K4 kissing-loop reporter (input ligand: none) [nM]	apparent KD of K4 kissing-loop reporter [1] [nM]	apparent KD of K4 kissing-loop reporter [2] [nM]
AGUGUGCAAAAGCACACUCAGUACAAGGACAAGGAUAUCUACUAAUAGAGAAGGUGUCCUUUCCUUAGUGAUGUUAAGGAACUGA [Omei KL FMN A SS D v3]	205	500	617	657	595
AGUUCUUGCCGAAGGAGCGAGGCAGAGUGAUGUUCUGCAAGAGGUCGAAAGACCUCACUGCCUCAGGUAGGUCGCGGCAUGAACA [Omei KL Arginine B Exc A v4]	801	509	930	602	1050
AGUUUAGAGUGACUCGAUAAGAGUCACAAACGAGGACCGGUACGGCCGCCACUCGAAAUAACGAGAGUGAUGUUCUCGCUGGGUA [FiskerMod 4 - Jieux - Same State Tryptophan A]	317	330	342	317	93.3
AUACAUGUAAAUCUAUAUGUAUAAUGGAGCCGAGGACCGGUACGGCCGCCACUCGGAGUAAUCGGAGUGAUGUUCCGAAAUGUAC [KL-SSTryp-A sub13]	93.7	119	104	123	64.6
AUAUGCAGGAGAAGGAGCGUCGUUUCAAGUGAUGUUUGCAAGCGAGCUUACUAUAUAAGACGACAGGUAGGUCGCUCCUGCGUAA [#06 K4 Arginine B Exclusion]	166	150	155	141	149
AUAUUUAUUUAGUCACUUUUCAUAUUAUGUCAGGAUAUCGUAUUUUCGAGAAGGGACUCAUGGUAGUGAUGUUACCUAUUUCUCA [#03 K4 FMN A Exclusion]	196	382	387	404	303
AUCAUUAGUUCGGCCGCCACUCCAGUGAUGUUGGAGGGACGCAUAAUAUGCGCGCGGCUAACUAGGAGGACCGGGAACUUUAGGC [Maonce]	82.8	115	133	86.9	156
AUGAGGUGACUAAAUAAUAAGGGAAUUGAUACCAGACAGAAUUCUGUCCCUUGGCAGCAGUGAUGUUGUUGCAAGUCAGCUCAAA [AK1.1 Exc Theophylline A]	265	186	206	198	212
AUGCGCGCGGCGGCCGCCACUCGCAUGAGAGUGAUGUUCUCGCCGGGCCCGCAAGGGCCCGGUGUGAGGACCGGGCCGGGCUGCG [#2 Same State - Tryptophan B Attempt #18 (HarryS)]	632	0.441	257	193	136
AUGCGCGCGGCGGCCGCCACUCGCAUGAGAGUGAUGUUCUCGCCGUGCCCGUAAGGGUGCGGUGUGAGGACCGGGCCGGGCUGCG [#2 Same State - Tryptophan B Attempt #20 (HarryS)]	204	107	227	37.5	239
AUGGCACCUGCGGCCGCCACUCACUCCGGGCUGCUGGCCAGUGAUGUUGGUACGGCUGCCGGUUAGAGGACCGGGCAGGAGCUAA [Rienisdite]	88.8	103	107	97.8	90.7
AUGGGCGAGGUAACGUGGAUAUCUCGUCGCAAGGAUAUCUGGAAACAGAGAAGGUGCUACAUUACCGGCAGUGAUGUUGCUGACC	959	231	559	263	131
AUGGUAUUGCGAGGAUAUCCUUCCCACGUCGAAGUACCGUGCUUGAUGGAGUGAUGUUCGAUCAGAGGAGAAGGCGCGGUGUUAU [Same State FMN B GF22]	706	368	572	645	639
AUGUACACGAUAGUGUACUCCUAGUGAUGUUAGGAUAUGCAGAUAUGCAGAAGGGACAAGUCAUCUGACAAUAGUCGGAUGACAA [FmnAX 10 #OpenEnded #K4Early]	179	85.6	109	114	91.5
AUGUAUAUCUCAGGAUAUAUAUGUGUGUGGUGUAUACAUAGUGAUGUUGUGUAUAUCCACAUAUGUAUAGAAGGGAGAUGUGCAU [Skye_SS_FMNB]	76.3	73.5	73.9	66	72
AUGUGGAGCGACGUUUAGAGAAACCGGGAAGGAGCGCGGAUAACCGCAGGUAGGUCGCCUGGUUGCCAGUGAUGUUGGCGACGUG [Exclusion Arg A GF 25]	87.4	222	144	96	138
AUGUUUUAUAAACUCAUGGUUUCGACAGAUACCAGCUUCGAGAGGAGCCCUUGGCAGCUGCAUGAGUGAUGUUCAUGUACGAAGA [KL-XTheoA7]	374	356	465	415	265
AUUAAUAACUGAGGAUAUCGUUUUACUGUAGUGAUGUUACAGAAAAUGCACAUUAUAAUUUCUAUUCGAGAAGGCAGAAUAAUUA [JR_ExcFMNB_Sub013]	110	75.5	74.5	74.1	65.4
AUUAAUUUCAGAGGAUAUCGUAAUUUUAUUUAAUUUAUUCAUUUAUGCAGUGAUGUUGCUAAUAUUCGAGAAGGCUGAUUUAUAA [JR_ExcFMNB_Sub007]	103	121	55.8	115	52.2
AUUAAUUUCAGAGGAUAUCGUAAUUUUAUUUUAUUUUUUCAUUUAUGCAGUGAUGUUGCAUUUAUUCGAGAAGGCUGAUUUAUAA [JR_SSFMNB_Sub021]	65.7	74.4	40.8	69.6	50.7
AUUAAUUUCAGAGGAUAUGCUUAAUUGAUUAAAUAUAAUCUAUUAUGCAGUGAUGUUGCAUUUUUUGCAGAAGGCUGAUUUAUAA [JR_SSFMNB_Sub017]	136	500	506	485	385
